Key:
rS1-D34 = rS1-D34 (Vibrio vulnificus CMCP6, UniProt A0A3Q0L6Y6); assay: NMR titration
rS1 full-length = rS1 full-length (Vibrio vulnificus CMCP6, UniProt A0A3Q0L6Y6); assay: EMSA
rS1-D3 = rS1-D3 (Vibrio vulnificus CMCP6, UniProt A0A3Q0L6Y6 192-260); assay: EMSA
rS1-D5 = rS1-D5 (Vibrio vulnificus CMCP6, UniProt A0A3Q0L6Y6 364-434); assay: EMSA
rS1-D4 = rS1-D4 (Vibrio vulnificus CMCP6, UniProt A0A3Q0L6Y6 277-347); assay: EMSA
rS1-D45 = rS1-D45 (Vibrio vulnificus CMCP6, UniProt A0A3Q0L6Y6); assay: EMSA

ACUCAUGAAU (ssRNA) [Asw-10]
Kd (rS1-D34): 57 ± 6 µM

UCAUGAAU (ssRNA) [Asw-8]
Kd (rS1-D34): 197 ± 50 µM

B1: add Asw full-length (112 nt) (structured_RNA)
RNA: GCUUCAUAUAAUCCUAAUGAUAUGGUUUGGGAGUUUCUACCAAGAGCCUUAAACUCUUGAUUAUGAAGUCUGUCGCUUUAUCCGAAAUUUUAUAAAGAGAAGACUCAUGAAU
Kd (rS1 full-length): 3000 ± 1000 nM | binding result (rS1-D3): no binding | binding result (rS1-D5): no binding | binding result (rS1-D4): no binding | binding result (rS1-D45): no binding

— PMC6237739
